Experimental data published in PMC10333338, “Mechanism of ATP hydrolysis dependent rotation of bacterial ATP synthase” (Nature Communications, 2023).

Molecular target: T1, α subunit of the F1 domain of FoF1 ATP synthase from Geobacillus stearothermophilus (Bacillus PS3 sp.) (G. stearothermophilus (Bacillus PS3 sp.), UniProt P09219 1-502)
T1 construct: ATP synthase subunit alpha, Bacillus PS3 sp; (G. stearothermophilus); subunit of the ΔεCT-FoF1 complex; Three copies stand in the F1 domain (α3β3γ); The complex was purified on Ni-NTA; also called αE; αT
Assay: cryo-EM structure; purified ΔεCT-FoF1 in DDM, 9 µM enzyme; 26 mM ATP-Mg, 20 s at 25 °C (high [ATP], nucleotide-depleted enzyme) or 25 µM ATP with pyruvate kinase and PEP, 60 s at 25 °C (low [ATP]); flash frozen; focused refinement on the F1 domain
Conditions: both partners purified

T1 sequence (P09219 whole entry, the tested form may be a part): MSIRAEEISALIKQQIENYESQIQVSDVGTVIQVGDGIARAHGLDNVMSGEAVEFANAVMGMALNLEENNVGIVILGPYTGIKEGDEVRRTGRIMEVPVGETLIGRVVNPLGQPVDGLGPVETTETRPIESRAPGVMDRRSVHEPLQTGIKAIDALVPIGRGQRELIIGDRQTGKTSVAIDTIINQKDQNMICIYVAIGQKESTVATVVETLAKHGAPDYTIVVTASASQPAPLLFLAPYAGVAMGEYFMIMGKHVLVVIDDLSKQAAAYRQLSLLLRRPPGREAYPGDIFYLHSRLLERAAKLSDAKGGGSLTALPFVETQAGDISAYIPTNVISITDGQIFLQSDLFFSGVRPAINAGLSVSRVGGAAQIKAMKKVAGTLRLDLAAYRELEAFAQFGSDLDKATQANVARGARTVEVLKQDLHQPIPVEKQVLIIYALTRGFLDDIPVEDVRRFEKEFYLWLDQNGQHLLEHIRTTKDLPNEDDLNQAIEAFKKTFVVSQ

- binding result: binds
B1: γ subunit of the F1 domain of FoF1 ATP synthase from Geobacillus stearothermophilus (Bacillus PS3 sp.) (natural protein, G. stearothermophilus (Bacillus PS3 sp.), UniProt P09222 5-286, looked up)
chain: ASLRDIKTRINATKKTSQITKAMEMVLTSKLNRAEKREIVRPYMEKIQEVVANVALAARASHPMLVSRPVKKTGYLVITSDRGLAGAYNSNVLRLVYQTIQKRHASPDEYAIIVIGRVGLSFFRKRNMPVILDITRLPDQPSFADIKEIARKTVGLFADGTFDELYMYYNHYVSAIQQEVTERKLLPLTDLAENKQRTVYEFEPSQEEILDVLLPQYAESLIYGALLDAKASEHAARMTAMKNATDNANELIRTLTLSYNRARQAAITQEITEIVAGANALQ
notes: ATP synthase gamma chain, Bacillus PS3 sp; (G. stearothermophilus); subunit of the ΔεCT-FoF1 complex; One copy in the centre of α3β3; also called γ-stalk; central γ subunit
